Reference: patent publication EP1126866B1 (The Regents of the University of California, dated 2007)

Target: rat cardiac SR Ca2+ ATPase (SERCA2a), endogenous in rat cardiomyocytes (rat, UniProt P11507 1-1043)
Assay: cell-based or functional assay

rat cardiac SR Ca2+ ATPase (SERCA2a), endogenous in rat cardiomyocytes, sequence (P11507 whole entry): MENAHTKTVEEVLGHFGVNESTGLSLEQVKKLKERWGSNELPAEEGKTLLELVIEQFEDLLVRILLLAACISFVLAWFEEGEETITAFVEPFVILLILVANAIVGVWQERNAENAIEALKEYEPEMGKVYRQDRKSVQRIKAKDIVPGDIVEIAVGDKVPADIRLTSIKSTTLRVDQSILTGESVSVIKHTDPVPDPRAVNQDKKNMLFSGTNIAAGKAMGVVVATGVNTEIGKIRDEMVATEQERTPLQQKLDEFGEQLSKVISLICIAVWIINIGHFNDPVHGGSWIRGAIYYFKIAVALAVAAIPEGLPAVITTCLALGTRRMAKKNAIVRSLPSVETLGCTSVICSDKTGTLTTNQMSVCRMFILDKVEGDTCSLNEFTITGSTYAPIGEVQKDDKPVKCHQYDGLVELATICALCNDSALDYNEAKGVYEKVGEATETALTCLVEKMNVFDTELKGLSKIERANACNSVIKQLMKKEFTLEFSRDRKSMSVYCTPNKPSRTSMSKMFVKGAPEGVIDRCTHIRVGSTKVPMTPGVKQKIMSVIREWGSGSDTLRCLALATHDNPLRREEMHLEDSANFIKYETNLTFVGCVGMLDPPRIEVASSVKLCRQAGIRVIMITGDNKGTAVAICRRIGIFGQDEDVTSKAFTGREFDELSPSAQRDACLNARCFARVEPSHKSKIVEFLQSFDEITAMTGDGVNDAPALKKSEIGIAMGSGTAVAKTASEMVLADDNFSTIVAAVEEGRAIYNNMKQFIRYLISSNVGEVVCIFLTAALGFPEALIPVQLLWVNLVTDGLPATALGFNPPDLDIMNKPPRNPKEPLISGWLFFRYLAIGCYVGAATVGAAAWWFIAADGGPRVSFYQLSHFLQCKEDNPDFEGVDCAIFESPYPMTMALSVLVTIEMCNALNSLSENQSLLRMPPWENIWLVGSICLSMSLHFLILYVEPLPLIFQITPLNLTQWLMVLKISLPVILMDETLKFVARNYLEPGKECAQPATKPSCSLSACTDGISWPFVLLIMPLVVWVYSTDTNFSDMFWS

B1: K3E/R14E double point mutation of PLB (other)
chain: MEEVQYLTRSAIREASTIEMPQQARQKLQNLFINFCLILICLLLICIIVMLL
EC50 of Ca2+ concentration at which the SR Ca2+ uptake activity is half-maximal (neonatal rat myocytes): 110 nM | lowering of the EC50 of Ca2+ for SR Ca2+ uptake (adult rat myocytes): 36%
